Results as given in publication PMC10899793, “Toxin release by conditional remodelling of ParDE1 from Mycobacterium tuberculosis leads to gyrase inhibition” (Nucleic Acids Research, 2023).

How the values were obtained:
[1] = target: ParE2 toxin of Mycobacterium tuberculosis H37Rv (Mycobacterium tuberculosis H37Rv) (UniProt P9WHG5); test: SEC
[2] = target: ParE2 toxin of Mycobacterium tuberculosis H37Rv (Mycobacterium tuberculosis H37Rv) (UniProt P9WHG5); test: crystal structure

“ParD2 antitoxin of Mycobacterium tuberculosis H37Rv (natural protein)” was tested, and the stoichiometry N (ParD2 per ParE2 (2:2 heterotetramer)) [1] was 1 and the stoichiometry N (ParD2 per ParE2 (1:1 heterodimer)) [2] was 1.
